{"source": "patent US20110033521A1", "about": "(RAPPAPORT FAMILY INSTITUTE FOR RESEARCH IN THE MEDICAL …, published 2011)", "binders": {"B1": {"name": "CCR2(E3)-IgG fusion protein (Fc fusion)", "chain": "GLSNCESTSQLDQATQVTET", "notes": "also called Ig-E3; CCR2-IgG; not shown: constant region (Hinge-CH2-CH3) of human IgG1 heavy chain, ligated downstream of CCR2 (E3)"}}, "target": "T1, recombinant human MCP-1 (CCL2) (human, UniProt P13500 24-99)", "T1 construct": "Bought recombinant protein; also called RHMCP-1; monocyte chemoattractant protein-1", "T1 sequence (P13500 24-99 limits assumed)": "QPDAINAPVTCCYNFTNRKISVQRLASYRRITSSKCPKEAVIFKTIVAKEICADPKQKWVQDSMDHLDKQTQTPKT", "test": "direct ELISA (O.D. 450 nm), chemokine coated at 100 ng/ml, CCR2(E3)-IgG at 5 ug/ml; reference: other human chemokines tested", "method": "ELISA—The binding specificity of CCR2(E3)-IgG to various commercially available human chemokines (PeproTech, Rocky Hill, N.J.) was determined by direct ELISA as follows: 96-well ELISA plates (Nunc, Roskilde, Denemark) were coated with 100 ng/ml of each chemokine, washed and blocked with 1% BSA/PBS. CCR2(E3)-IgG at a concentration 5 μg/ml was then added. HRP labeled mouse anti human Ig (Jackson, Pa.) was added as a second Antibody. Results are shown as O.D. reading at 450 nm. Anti CCL2 monoclonal antibody (MAB679; R&D Systems, Minneapolis, […].) was used as a positive control (1 μg/ml)."}
{"binder": "B1", "values": [{"measurement": "fold binding against other factors tested", "value": "~4", "unit": "fold"}]}
